According to patent US20070178531A1 (BIOCHECK, published 2007):

Key:
[1] = biological target: T1, Mouse Id1: Histidine (mouse, UniProt P20067-2 1-148, limits assumed); experiment: ELISA, positive control (stated to be BCH-4/6-1) 0.25 µg/ml
T1 construct: Fusion protein made in E. coli from vector pGW07; also called m-Id1-His; not shown: His tag
T1 sequence (looked up): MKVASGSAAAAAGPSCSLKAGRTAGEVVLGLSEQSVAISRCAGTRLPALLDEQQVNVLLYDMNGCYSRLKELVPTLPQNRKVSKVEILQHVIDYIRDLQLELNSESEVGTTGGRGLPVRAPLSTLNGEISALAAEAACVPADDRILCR
Experimental: (§1) 1. Dispense 100 μL of antibody diluent, diluted rabbit monoclonal human Id3, and mouse/human Id3 hybridoma supernatants into appropriate wells. […] 2. Incubate at room temperature with mechanical shaking at 750 rpm for 90 minutes. [0165] 3. Remove the incubation mixture by flicking plate content into an appropriate waste container followed by rinsing the wells 5 times with distilled water. [0166] 4. Strike the wells sharply onto absorbent paper or paper towels to remove all residual water droplets. [0167] 5. Dispense 100 μL of 1:50,000 Goat Anti-Rabbit IgG-HRP Conjugate Reagent into each well. Gently mix for 5 seconds. [0168] 6. Incubate at room temperature with mechanical shaking at 750 rpm for 90 minutes. [0169] 7. Repeat procedures 3 and 4. [0170] 8. Dispense 100 μL of TMB Reagent into each well. Gently mix for 5 seconds. [0171] 9. Incubate at room temperature with mechanical shaking at 750 rpm for 20 minutes. […] 10. Add 100 μL of Stop Solution (1N HCl) into each well. [0173] 11. Gently mix for 10 seconds to ensure a complete mixing. [0174] 12. Read optical density at A450 nm.
(§2) The materials and method are the same as those described in Example 9 except the following.
(§3) Rabbit monoclonal anti-mouse Id3, hybridoma supernatant was used as the test antibody. Protein G purified, rabbit monoclonal anti-mouse/human Id3 antibody, BCH-4/6-1, 0.92 mg/ml in 0.25% BSA was used as positive controls.

[2] = biological target: T2, Mouse Id3: Histidine (mouse, UniProt P41133 1-119); experiment: as above
T2 construct: Fusion protein made in E. coli from vector pGW07; also called m-Id3: His; Mouse Id3 (coated wells); not shown: His tag
T2 sequence: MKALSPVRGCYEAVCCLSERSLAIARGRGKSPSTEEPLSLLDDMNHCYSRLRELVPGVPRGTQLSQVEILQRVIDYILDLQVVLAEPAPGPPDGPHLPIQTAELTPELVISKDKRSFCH
Experimental: as §1, §2, §3

[3] = biological target: T3, Human Id2: Histidine (human, UniProt Q02363 1-134, limits assumed); experiment: ELISA, Ab 0.025 µg/ml
T3 construct: Fusion protein made in E. coli from vector pGW07; also called h-Id2: His; not shown: His tag
T3 sequence (looked up): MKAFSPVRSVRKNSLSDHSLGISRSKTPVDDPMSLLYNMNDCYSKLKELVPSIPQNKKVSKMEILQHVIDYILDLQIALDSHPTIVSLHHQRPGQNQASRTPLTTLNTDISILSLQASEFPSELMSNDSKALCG
Experimental: as §1
(§4) Cross-reactivity of rabbit monoclonal anti-mouse/human Id3 (clone #6-1) and commercial rabbit polyclonal antibody (Santa Cruz Biotechnology) were determined according to the procedures of Example 9.

[4] = biological target: T4, Mouse Id2: Histidine (mouse, UniProt P41136 1-134, limits assumed); experiment: ELISA, Ab 0.025 µg/ml
T4 construct: Fusion protein made in E. coli from vector pGW07; also called m-Id2: His; not shown: His tag
T4 sequence (looked up): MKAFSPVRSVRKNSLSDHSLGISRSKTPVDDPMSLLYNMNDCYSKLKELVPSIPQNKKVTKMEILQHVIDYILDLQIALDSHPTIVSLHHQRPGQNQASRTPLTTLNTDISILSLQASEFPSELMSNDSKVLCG
Experimental: as §1, §4

[5] = biological target: T1, Mouse Id1: Histidine; experiment: ELISA, Ab 0.025 µg/ml
Experimental: as §1, §4

[6] = biological target: T5, Human Id3: Histidine (human, UniProt Q02535 1-119 at identity 1.00)); experiment: ELISA, Ab 0.025 µg/ml
T5 construct: Fusion protein made in E. coli from vector pGW07; also called h-Id3: His; Human Id3 (coated wells); not shown: His tag
T5 chain: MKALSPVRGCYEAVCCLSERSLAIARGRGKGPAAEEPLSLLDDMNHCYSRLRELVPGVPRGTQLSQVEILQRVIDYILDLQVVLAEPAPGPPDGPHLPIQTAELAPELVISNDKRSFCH
Experimental: as §1, §4

[7] = biological target: T2, Mouse Id3: Histidine; experiment: ELISA, Ab 0.025 µg/ml
Experimental: as §1, §4

[8] = biological target: T6, Human Id1: Histidine (human, UniProt P41134 1-155, limits assumed); experiment: ELISA, Ab 0.025 µg/ml
T6 construct: Fusion protein made in E. coli from vector pGW07; also called h-Id1: his; not shown: His tag
T6 sequence (looked up): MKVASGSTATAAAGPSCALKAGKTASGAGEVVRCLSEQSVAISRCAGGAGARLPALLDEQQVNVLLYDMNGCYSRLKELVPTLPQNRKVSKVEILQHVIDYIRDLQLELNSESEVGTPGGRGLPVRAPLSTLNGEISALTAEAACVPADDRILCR
Experimental: as §1, §4

B1: rabbit monoclonal anti-mouse/human Id3, clone #BCH-4/#6-1 (antibody, V domains shown)
VH: QSVEESGGRLVTPGTPLTLTCTASGFSLSNVYIHWVRQAPGKGLEWIGYISDGDTARYATWAKGRFTISKTSSTTVNLKMTSLTTEDTATYFCARQGFNIWGPGTLVTVSL
VL: AVLTQTPSPVSAAVGGTVSISCQSSQSVWNNNWLSWFQQKPGQPPKLLIYETSKLESGVPSRFKGSGSGTQFTLTISDVQCDDAATYYCLGGYWTTSDNNVFGGGTEVVVK
notes: Rabbit IgG from a rabbit hybridoma; also called m/h Id3 MoAb 6-1
- A450 [1]: 1.96 A450
- A450 [2]: 2.81 A450
- A450 [3]: 0.088 A450
- A450 [4]: 0.076 A450
- A450 [5]: 0.072 A450
- A450 [6]: 1.01 A450
- A450 [7]: 1.15 A450
- A450 [8]: 0.073 A450
